How the values were obtained:
gB on HCMV whole virion = gB on HCMV whole virion (Human cytomegalovirus, virion strain …, UniProt P06473); assay: ELISA; inactivated virion (2 μg/mL) coated; 2-fold serially diluted IgG, Fab or (Fab)2, 90 min RT; HRP goat anti-human (Fab)2; conditions: one partner purified
[1] = target: T1, biotinylated full-length peptide, residues 59–88 of gB (Human cytomegalovirus AD169, UniProt P06473); assay: ELISA; conditions: both partners purified
T1 construct: also called full-length peptide (white column); source: synthetic peptide, bought: JPT Peptide Technologies
T1 chain: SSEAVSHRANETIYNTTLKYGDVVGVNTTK

gB-p17 [2] = target: T2, gB-p17 (Human cytomegalovirus, strain AD169); assay: ELISA; conditions: both partners purified
T2 chain: HRANETIYNTTLKYG

gB P_(064-083) = target: T3, gB P_(064-083) (Human cytomegalovirus, strain AD169); assay: ELISA; conditions: both partners purified
T3 construct: source: synthetic peptide
T3 chain: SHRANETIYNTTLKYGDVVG

[3] = target: T4, gB 15-mer library peptide, residues 69-83 (Human cytomegalovirus, strain AD169); assay: ELISA; conditions: both partners purified
T4 construct: source: synthetic peptide, bought: JPT Peptide Technologies
T4 chain: ETIYNTTLKYGDVVG

gB-p17 [4] = target: T2, gB-p17; assay: crystal structure; conditions: both partners purified

gB on HCMV whole virion, sequence (P06473 32-906): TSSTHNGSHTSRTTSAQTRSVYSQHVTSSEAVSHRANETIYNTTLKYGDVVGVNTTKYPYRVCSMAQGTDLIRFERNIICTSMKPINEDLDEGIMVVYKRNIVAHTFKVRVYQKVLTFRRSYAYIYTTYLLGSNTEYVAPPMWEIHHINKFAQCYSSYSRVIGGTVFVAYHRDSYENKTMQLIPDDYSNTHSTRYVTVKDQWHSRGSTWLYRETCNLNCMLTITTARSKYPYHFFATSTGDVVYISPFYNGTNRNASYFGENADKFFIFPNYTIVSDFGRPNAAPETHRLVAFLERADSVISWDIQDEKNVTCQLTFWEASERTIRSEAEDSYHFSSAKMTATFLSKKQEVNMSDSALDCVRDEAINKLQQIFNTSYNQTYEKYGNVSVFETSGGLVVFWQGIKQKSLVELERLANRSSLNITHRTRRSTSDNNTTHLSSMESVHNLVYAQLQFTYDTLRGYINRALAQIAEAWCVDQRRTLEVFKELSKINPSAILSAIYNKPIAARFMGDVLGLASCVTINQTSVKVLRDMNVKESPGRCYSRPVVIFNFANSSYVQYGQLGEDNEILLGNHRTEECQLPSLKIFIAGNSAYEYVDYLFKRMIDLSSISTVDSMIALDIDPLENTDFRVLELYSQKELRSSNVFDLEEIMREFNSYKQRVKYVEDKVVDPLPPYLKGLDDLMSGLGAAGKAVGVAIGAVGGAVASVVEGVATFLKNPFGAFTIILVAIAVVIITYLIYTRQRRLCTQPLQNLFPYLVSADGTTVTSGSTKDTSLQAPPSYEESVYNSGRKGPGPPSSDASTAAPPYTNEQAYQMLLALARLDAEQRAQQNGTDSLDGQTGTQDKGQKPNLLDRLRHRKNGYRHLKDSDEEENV

B1: 3–25 IgG (antibody, V domains shown)
VH: QVQLVESGGGVVQPGRSLRLSCAASGFTFSNHGLHWVRQPPGKGLEWVAVVSKDGTNEHYADSVRGRFTISRDNSKNTLYLLMKSLRLEDTAVYYCAREGYCGDDRCYSGQPDYWGQGILVTVSS
VL: EIVLTQFPATLSLSPGERATLSCRASQSVGRYLAWYQQKPGQAPRLLIYDSSNRATGVPARFSGSGSGTDFTLSISSLEPEDFAVYFCQQRSHWPPLTFGGGTKVEIK
Q: Which EC50 (gB on HCMV whole virion) does the source give for B1 here?
A: Its EC50 is 18.9 nM.

Q: Does B1 bind [1]?
A: Result: binds

Q: Does B1 bind (gB-p17 [2])?
A: Result: binds

Q: Does B1 bind (gB P_(064-083))?
A: Result: binds

Q: Does B1 bind [3]?
A: Result: binds

B2: 3–25 Fab (Fab, V domains shown)
VH: QVQLVESGGGVVQPGRSLRLSCAASGFTFSNHGLHWVRQPPGKGLEWVAVVSKDGTNEHYADSVRGRFTISRDNSKNTLYLLMKSLRLEDTAVYYCAREGYCGDDRCYSGQPDYWGQGILVTVSS
VL: EIVLTQFPATLSLSPGERATLSCRASQSVGRYLAWYQQKPGQAPRLLIYDSSNRATGVPARFSGSGSGTDFTLSISSLEPEDFAVYFCQQRSHWPPLTFGGGTKVEIK
Q: Which results are given for B2?
A: EC50 (gB on HCMV whole virion): 66.9 nM; binding result (gB-p17 [4]): binds

Source: article PMC7425986 (PLoS Pathogens, 2020)
